Assay results taken from article PMC11148119.

Biological target: T1, Full-length rat TRPV2 with a C-terminal 1D4 tag, reconstituted into MSP2N2 nanodiscs (rat), Q9WUD2
T1 chain: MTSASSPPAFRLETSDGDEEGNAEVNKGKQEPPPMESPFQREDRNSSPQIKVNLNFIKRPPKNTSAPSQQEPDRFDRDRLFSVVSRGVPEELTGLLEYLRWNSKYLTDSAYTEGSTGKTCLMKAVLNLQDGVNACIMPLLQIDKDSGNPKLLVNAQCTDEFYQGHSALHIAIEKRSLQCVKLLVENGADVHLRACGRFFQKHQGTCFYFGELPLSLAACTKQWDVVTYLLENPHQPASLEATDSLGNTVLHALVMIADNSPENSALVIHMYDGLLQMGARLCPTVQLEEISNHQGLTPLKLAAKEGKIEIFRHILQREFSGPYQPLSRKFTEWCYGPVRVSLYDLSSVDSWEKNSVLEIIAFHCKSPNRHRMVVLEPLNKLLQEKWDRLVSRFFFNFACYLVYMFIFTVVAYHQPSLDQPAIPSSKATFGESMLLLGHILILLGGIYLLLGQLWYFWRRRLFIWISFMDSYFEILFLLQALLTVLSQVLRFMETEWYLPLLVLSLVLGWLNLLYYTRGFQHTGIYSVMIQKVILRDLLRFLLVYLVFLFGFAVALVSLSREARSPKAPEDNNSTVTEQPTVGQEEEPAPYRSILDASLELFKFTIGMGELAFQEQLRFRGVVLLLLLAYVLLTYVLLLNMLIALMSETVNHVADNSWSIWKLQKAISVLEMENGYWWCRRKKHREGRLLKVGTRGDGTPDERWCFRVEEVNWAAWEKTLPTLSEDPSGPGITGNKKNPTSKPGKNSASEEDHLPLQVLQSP
Assay: cryo-EM structure; rTRPV2 in MSP2N2/soy polar lipid nanodiscs; apo dataset at pH 8 (states Apo1, Apo2, Apo3) and dataset with 30 mM sodium acetate at final pH 5.0 (TRPV2_HOAc); grids prepared at 4 °C; maps refined with C4 symmetry
Details: remark: other sources report otherwise

- stoichiometry N: 4
B1: Full-length rat TRPV2 with a C-terminal 1D4 tag, reconstituted into MSP2N2 nanodiscs, Q9WUD2 1-761 (natural protein)
chain: T1 chain
